Numbering of substitutions follows the chain as printed. Names and notes keep the numbering of the source.

Common to all, as to assay type: cell-based
One experiment has as its system HEK293 cells. Put plainly: Tacrolimus dose response of FKBP13 constructs transiently transfected into HEK293 cells, Celigo Image Cytometer. The conditions noted are these: for performance / drug responsiveness in tacrolimus dose response: FIGS. 5, 6, 8. From the text: In another experiment, several FKBP13 DRD constructs were transiently transfected into HEK293 cells, as described above, and analyzed using a Celigo Image Cytometer (Nexcelom, Lawrence, MA).
To test the effects of other substitutions instead of methionine at residue number 54 and leucine at position 93 FKBP13 DRD constructs were generated and were transiently transfected into HEK293 cells, as described above, and analyzed using a Celigo Image Cytometer (Nexcelom, Lawrence, MA).
In another experiment, to explore the possibility of further truncating FKBP13, constructs (FKBP-044, FKBP-083, FKBP-084, FKBP-085, and FKBP-086) were transiently transfected into HEK293 cells, as described above, and analyzed using a Celigo Image Cytometer (Nexcelom, Lawrence, MA). A combination of DRD-genic M54A with truncation of the N-terminal histidine lowers basal (FKBP-083).
In another experiment, several constructs (FKBP-044, FKBP-092, FKBP-093, FKBP-094, FKBP-095, FKBP-096 and FKBP-097) designed to explore additional DRD-genic mutations were transiently transfected into HEK293 cells, as described above, and analyzed using a Celigo Image Cytometer (Nexcelom, Lawrence, MA).
Other constructs (FKBP-091, FKBP-098, FKBP-099, FKBP-100, and FKBP-101) were transiently transfected into HEK293 cells, as described above, and analyzed using a Celigo Image Cytometer (Nexcelom, Lawrence, MA).
In another experiment, several constructs (FKBP-091, FKBP-102, FKBP-103, FKBP-104, FKBP-105 and FKBP-106), designed to combine the binding site mutation identified in FKBP-091 with novel DRD-genic mutations, were transiently transfected into HEK293 cells, as described above, and analyzed using a Celigo Image Cytometer (Nexcelom, Lawrence, MA). […]
In another experiment, several other constructs (FKBP-091, FKBP-107, FKBP-108, FKBP-109, FKBP-110, and FKBP-111), designed to combine the binding site mutation identified in FKBP-091 with novel DRD-genic mutations, were transiently transfected into HEK293 cells, as described above, and analyzed using a Celigo Image Cytometer (Nexcelom, Lawrence, MA). […]

The next experiment deals with HEK-293T cells. The experiment in a line: Tacrolimus (FK506) response of FKBP13-AcGFP-mCherry constructs transiently transfected into HEK-293T cells, flow cytometry. To be noted: for AcGFP stabilization / fluorescence signal in response to FK506: 0, 1 or 10 μM FK506, 24 hours; for Fold Change: tacrolimus response of FKBP13 DRD-AcGFP construct, Table 3. From the text: The DRD in FKBP13-039 was a wildtype (WT) FKBP13 (i.e., a 98 amino acid fragment of SEQ ID NO: 1). […] The FKBP13-043, FKBP13-044, and FKBP13-045 constructs included DRD-genic mutations D90G, M54A and M96V, respectively, and three binding site mutations (Q72R, Q84E, and A117H).
In general terms: A flow cytometer gives signals particle by particle.

The subject of experiment [1] is Jurkat cells. Put plainly: Tacrolimus dose response of FKBP13-AcGFP-mCherry constructs stably transduced into Jurkat cells, GFP MFI by flow cytometry. The method, boiled down:
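GFP geometric MFI was read by flow cytometry in mCherry+ cells and curve-fitted against tacrolimus dose. Cells were Jurkat E6-1, lentivirus-transduced with FKBP13-AcGFP-mCherry fusion constructs until 10-25% mCherry-positive on day 5 post-transduction.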

For experiment [2], the system named is Jurkat cells. Put plainly: Sirolimus (rapamycin) dose response of FKBP13 constructs stably transduced into Jurkat cells, flow cytometry. To be noted: rapamycin, Table 14. The method, then: Normalized EC50 values were calculated from the mCherry normalized GFP MFI values, which accounted for any differences in mCherry intensity between samples.
[3] abbreviates: tacrolimus dose response, Jurkat cells stably transduced (FIG. 10), Table 5.

B1: FKBP-083: FKBP13 trunc1 DRD Q72R, Q84E, A117H, M54A; SEQ ID NO: 33 (protein)
chain: CPIKSRKGDVLHAHYTGKLEDGTEFDSSLPRNQPFVFSLGTGEVIKGWDQGLLGMCEGEKRKLVIPSELGYGERGHPPKIPGGATLVFEVELLKIER
modifications: truncated (trunc1); Description of sequence: FKBP13-AcGFP-mCherry Fusion; Construct Name: FKBP-083; FKBP13 DRD in Construct : FKBP13 trunc1 (mutated to match FKBP12 active site - Q72R Q84E A117H) (DRD - M54A)
As for B1, the Basal result with HEK293 cells (FIG. 7) is “lowers basal”.

B2: FKBP-043: FKBP13 DRD Q72R, Q84E, A117H, D90G; SEQ ID NO: 6 (protein)
chain: HCPIKSRKGDVLHMHYTGKLEDGTEFDSSLPRNQPFVFSLGTGEVIKGWGQGLLGMCEGEKRKLVIPSELGYGERGHPPKIPGGATLVFEVELLKIER
modifications: Description of sequence: FKBP13-AcGFP-mCherry Fusion; Construct Name: FKBP-043; FKBP13 DRD in Construct : FKBP13 (mutated to match FKBP12 active site - Q72R Q84E A117H) (DRD - D90G)
Regarding B2, in the experiment with HEK-293T cells (FIG. 1B), the “AcGFP stabilization / fluorescence signal in response to FK506” value is “increased more effectively” and the DRD activity entry is “had DRD activity”. Also, the Fold Change with HEK-293T cells is on record as 26.5.

B3: FKBP-045: FKBP13 DRD Q72R, Q84E, A117H, M96V; SEQ ID NO: 8 (protein)
chain: B2 chain with G50D, M56V
modifications: Description of sequence: FKBP13-AcGFP-mCherry Fusion; Construct Name: FKBP-045; FKBP13 DRD in Construct : FKBP13 (mutated to match FKBP12 active site - Q72R Q84E A117H) (DRD - M96V)
On to B3, for which, in the experiment with HEK-293T cells (FIG. 1B), the “AcGFP stabilization / fluorescence signal in response to FK506” value is reported as “increased more effectively”. This molecule came in with a Fold Change in the experiment on HEK-293T cells of 23.2.

B4: FKBP-091: FKBP13 DRD Q72R, Q84E, A117W, M54A; SEQ ID NO: 41 (protein)
chain: B2 chain with M14A, G50D, H77W
modifications: Description of sequence: FKBP13-AcGFP-mCherry Fusion; Construct Name: FKBP-091; FKBP13 DRD in Construct : FKBP13 (mutated to match FKBP12 active site Q72R Q84E A117W) (DRD - M54A)
With B4, the EC90 turned out to be 117 nM with Jurkat cells [1] (read-out: Tacrolimus EC90 (Norm), tacrolimus, normalized, Table 14); 111 nM in the experiment on Jurkat cells [1] (read-out: Tacrolimus EC90, tacrolimus, Table 14); 398 nM in the experiment with Jurkat cells [2] (read-out: Rapamycin EC90); 414 nM with Jurkat cells [2] (normalized, read-out: Rapamycin EC90 (Norm)). In addition, the “Fold Change” value with Jurkat cells [1] (setting [3]) was 12.36; with Jurkat cells [1] (tacrolimus, Jurkat cells stably transduced, Table 6), 11.29. Further, the “Tacrolimus FC” value in the experiment on Jurkat cells [1] (tacrolimus, fold change, Table 14) turned out to be 12.4. Further, the “performance / drug responsiveness in tacrolimus dose response” value with HEK293 cells is given as “superior drug responsiveness”. Besides, in the experiment on Jurkat cells [2] (fold change), the “Rapamycin FC” value was determined as 3.2.

B5: FKBP-039: FKBP13 (WT) fragment DRD-AcGFP-mCherry; SEQ ID NO: 2 (protein)
chain: B2 chain with R32Q, E44Q, G50D, H77A
modifications: Description of sequence: FKBP13-AcGFP-mCherry Fusion; Construct Name: FKBP-039; FKBP13 DRD in Construct : FKBP13 (WT)
Regarding B5, the Fold Change in the experiment with HEK-293T cells is recorded as 4.9.

B6: FKBP-042: FKBP13 DRD M96V; SEQ ID NO: 5 (protein)
chain: B2 chain with R32Q, E44Q, G50D, M56V, H77A
modifications: Description of sequence: FKBP13-AcGFP-mCherry Fusion; Construct Name: FKBP-042; FKBP13 DRD in Construct : FKBP13 (DRD - M96V)
As for B6, the Fold Change in the experiment with HEK-293T cells is given as 1.3.

B7: FKBP-041: FKBP13 DRD M54A; SEQ ID NO: 4 (protein)
chain: B2 chain with M14A, R32Q, E44Q, G50D, H77A
modifications: Description of sequence: FKBP13-AcGFP-mCherry Fusion; Construct Name: FKBP-041; FKBP13 DRD in Construct : FKBP13 (DRD - M54A)
In the experiment on HEK-293T cells, B7 displayed a Fold Change of 7.8.

B8: FKBP-040: FKBP13 DRD D90G; SEQ ID NO: 3 (protein)
chain: B2 chain with R32Q, E44Q, H77A
modifications: Description of sequence: FKBP13-AcGFP-mCherry Fusion; Construct Name: FKBP-040; FKBP13 DRD in Construct : FKBP13 (DRD - D90G)
Take B8: in the experiment with HEK-293T cells, the Fold Change is reported as 1.

B9: FKBP-044: FKBP13 DRD Q72R, Q84E, A117H, M54A; SEQ ID NO: 7 (protein)
chain: B2 chain with M14A, G50D
modifications: Description of sequence: FKBP13-AcGFP-mCherry Fusion; Construct Name: FKBP-044; FKBP13 DRD in Construct : FKBP13 (mutated to match FKBP12 active site - Q72R Q84E A117H) (DRD - M54A)
For B9, the Fold Change with Jurkat cells [1] (tacrolimus dose response, Jurkat cells stably transduced (FIG. 4), Table 4) came out at 12.6; in the experiment with Jurkat cells [1] (setting [3]), 11.805; in the experiment with HEK-293T cells, 9.4. In addition, in the experiment on Jurkat cells [1] (tacrolimus top concentration 10 μM, 24 hr, FIG. 2), the “EC50 and fold-change characteristics” value is “best EC50 and fold-change characteristics”. The “AcGFP stabilization / fluorescence signal in response to FK506” value in the experiment with HEK-293T cells (FIG. 1B) is on record as “increased more effectively”.

B10: FKBP-068: FKBP13 DRD Q72R, Q84E, A117H, M54S; SEQ ID NO: 24 (protein)
chain: B2 chain with M14S, G50D
modifications: Description of sequence: FKBP13-AcGFP-mCherry Fusion; Construct Name: FKBP-068; FKBP13 DRD in Construct : FKBP13 (mutated to match FKBP12 active site - Q72R Q84E A117H) (DRD - M54S)
With B10, the “Fold Change” value with Jurkat cells [1] (setting [3]) amounted to 43.62. For the same molecule, the “performance / drug responsiveness in tacrolimus dose response” value in the experiment on HEK293 cells is listed as “closest in performance to the original M54A substitution”.

One may read the EC90 as the concentration at which the effect reaches the 90% level.

The values above are taken from patent publication US20250186614A1, “COMPACT DRUG RESPONSIVE DOMAINS FOR REGULATION OF FUNCTION/ABUNDANCE AND DELIVERY OF POLYPEPTIDE PAYLOADS” (OBSIDIAN THERAPEUTICS, INC., priority 2022, published 2025).
